Results reported in US20090253630A1 (Eli Lilly, published 2009).
Groups on a side chain read outwards from the residue. No end group written: not given here. CO‑CH2 = CO-CH2 linker joining mPEG to the Lys side chain

Assays:
[1] = biological target: T1, PTH receptor (PTHR1) on SaOS-2 osteosarcoma cells (UniProt Q03431 27-593, limits assumed); experiment: cell-based or functional assay
T1 sequence (looked up): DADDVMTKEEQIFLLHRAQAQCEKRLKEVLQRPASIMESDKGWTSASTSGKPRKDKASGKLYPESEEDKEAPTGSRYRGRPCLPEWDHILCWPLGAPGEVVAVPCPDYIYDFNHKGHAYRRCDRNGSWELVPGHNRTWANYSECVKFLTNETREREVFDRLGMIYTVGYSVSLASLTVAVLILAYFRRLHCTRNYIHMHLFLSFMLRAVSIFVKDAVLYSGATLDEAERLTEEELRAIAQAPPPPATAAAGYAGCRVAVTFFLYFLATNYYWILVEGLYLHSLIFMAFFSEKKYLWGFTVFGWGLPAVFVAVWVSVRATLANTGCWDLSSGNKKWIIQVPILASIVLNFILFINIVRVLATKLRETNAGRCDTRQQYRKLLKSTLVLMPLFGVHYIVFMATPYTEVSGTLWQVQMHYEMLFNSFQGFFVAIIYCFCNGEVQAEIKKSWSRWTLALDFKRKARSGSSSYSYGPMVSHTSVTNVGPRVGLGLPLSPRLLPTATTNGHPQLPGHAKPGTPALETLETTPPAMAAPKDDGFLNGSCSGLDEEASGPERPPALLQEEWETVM

[2] = biological target: PTHR-emGFP expressed in transfected HEK 293 cells; experiment: cell-based or functional assay

SVSEIQLMHNLGRHLASMERVEWLRK([CO‑CH2-mPEG 2 kD])LLQDVHNF-NH2 (also: trifluoroacetate salt) [SEQ ID NO: 1 with 2 kD mPEG]
Average EC50 (nM) (n = 2), cAMP induction in SaOS-2 cells (HTRF) [1]: 7.7 nM
PTHR1 internalization at 20 min, 100 nM compound, percent of vehicle only control (baseline=100%) [2]: 160 % of vehicle only control
PTHR1 internalization at 40 min, 100 nM compound, percent of vehicle only control (baseline=100%) [2]: 120 % of vehicle only control
PTHR1 internalization at 60 min, 100 nM compound, percent of vehicle only control (baseline=100%) [2]: 104 % of vehicle only control
PTHR1 internalization at 180 min, 100 nM compound, percent of vehicle only control (baseline=100%) [2]: 102 % of vehicle only control

SVSEIQLMHNLGRHLASMERVEWLRKLLQDVHNF (not fully specified (C-terminus)) [SEQ ID NO: 1 but unpegylated and Lysine at amino acid 26]
PTHR1 internalization at 20 min, 100 nM compound, percent of vehicle only control (baseline=100%) [2]: 106 % of vehicle only control
PTHR1 internalization at 40 min, 100 nM compound, percent of vehicle only control (baseline=100%) [2]: 126 % of vehicle only control
PTHR1 internalization at 60 min, 100 nM compound, percent of vehicle only control (baseline=100%) [2]: 113 % of vehicle only control
PTHR1 internalization at 180 min, 100 nM compound, percent of vehicle only control (baseline=100%) [2]: 142 % of vehicle only control

SVSEIQLMHNLGRHLASMERVEWLRK([CO‑CH2-mPEG 5 kD])LLQDVHNF-NH2 (also: trifluoroacetate salt) [SEQ ID NO: 1 with 5 kD mPEG]
PTHR1 internalization at 20 min, 100 nM compound, percent of vehicle only control (baseline=100%) [2]: 127 % of vehicle only control
PTHR1 internalization at 40 min, 100 nM compound, percent of vehicle only control (baseline=100%) [2]: 93 % of vehicle only control
PTHR1 internalization at 60 min, 100 nM compound, percent of vehicle only control (baseline=100%) [2]: 91 % of vehicle only control
PTHR1 internalization at 180 min, 100 nM compound, percent of vehicle only control (baseline=100%) [2]: 92 % of vehicle only control
